T1: Recombinant human LPL (mature human lipoprotein lipase, amino acids 28-475) (human, UniProt P06858 28-475)
T1 sequence: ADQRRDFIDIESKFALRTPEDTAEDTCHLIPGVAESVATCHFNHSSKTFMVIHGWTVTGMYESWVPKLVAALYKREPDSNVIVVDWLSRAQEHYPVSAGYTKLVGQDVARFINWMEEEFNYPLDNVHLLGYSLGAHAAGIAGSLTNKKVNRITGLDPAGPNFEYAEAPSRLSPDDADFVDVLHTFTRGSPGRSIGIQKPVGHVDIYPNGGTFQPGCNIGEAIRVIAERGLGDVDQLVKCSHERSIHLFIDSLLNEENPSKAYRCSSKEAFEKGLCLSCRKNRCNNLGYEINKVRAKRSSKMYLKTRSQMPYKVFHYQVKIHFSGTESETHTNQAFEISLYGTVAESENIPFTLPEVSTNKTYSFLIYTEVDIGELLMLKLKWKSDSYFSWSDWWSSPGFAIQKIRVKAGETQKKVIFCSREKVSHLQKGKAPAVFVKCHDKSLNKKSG

T2: Co-expressed human LPL/soluble GPIHBP1 complex (human, UniProt P06858 28-475; Q8IV16 21-151, biotin at the C-terminal end of GPIHBP1 in the ELISA and SPR assays)
T2 sequence 1: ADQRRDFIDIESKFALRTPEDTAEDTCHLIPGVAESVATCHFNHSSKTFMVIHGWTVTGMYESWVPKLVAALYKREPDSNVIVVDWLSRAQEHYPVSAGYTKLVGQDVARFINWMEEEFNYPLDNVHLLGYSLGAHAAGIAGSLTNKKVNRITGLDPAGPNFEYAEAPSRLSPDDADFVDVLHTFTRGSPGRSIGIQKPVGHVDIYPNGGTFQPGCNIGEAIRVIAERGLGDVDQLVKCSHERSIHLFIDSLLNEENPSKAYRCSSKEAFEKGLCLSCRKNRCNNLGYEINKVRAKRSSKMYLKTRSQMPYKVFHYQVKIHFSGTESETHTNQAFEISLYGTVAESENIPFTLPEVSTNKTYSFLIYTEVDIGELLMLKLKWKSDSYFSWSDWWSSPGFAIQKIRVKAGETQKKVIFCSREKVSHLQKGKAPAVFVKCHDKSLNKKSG
T2 sequence 2: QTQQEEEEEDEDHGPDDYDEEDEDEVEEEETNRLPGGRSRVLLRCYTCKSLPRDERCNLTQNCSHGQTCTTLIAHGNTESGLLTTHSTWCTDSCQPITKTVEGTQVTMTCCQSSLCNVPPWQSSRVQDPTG

T3: hANGPTL4-myc (human, UniProt Q9BY76)
T3 construct: residues 26-406; It is a different tag version from m7; also called ANGPTL4(26-406)-6HIS-myc
T3 sequence (single chain, looked up): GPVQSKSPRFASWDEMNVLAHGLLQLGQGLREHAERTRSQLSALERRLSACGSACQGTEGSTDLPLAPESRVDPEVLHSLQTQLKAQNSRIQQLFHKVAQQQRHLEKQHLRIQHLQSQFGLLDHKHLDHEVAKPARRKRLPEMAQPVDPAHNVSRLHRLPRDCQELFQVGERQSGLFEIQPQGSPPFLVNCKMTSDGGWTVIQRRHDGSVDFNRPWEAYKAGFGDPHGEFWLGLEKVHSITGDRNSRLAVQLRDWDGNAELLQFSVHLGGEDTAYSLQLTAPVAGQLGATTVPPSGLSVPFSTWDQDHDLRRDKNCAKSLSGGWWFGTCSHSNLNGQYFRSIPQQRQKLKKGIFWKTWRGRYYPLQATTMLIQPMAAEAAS

B1: Human ANGPTL4(26-406)-FLAG-6HIS-Avi (ligand)
chain: GPVQSKSPRFASWDEMNVLAHGLLQLGQGLREHAERTRSQLSALERRLSACGSACQGTEGSTDLPLAPESRVDPEVLHSLQTQLKAQNSRIQQLFHKVAQQQRHLEKQHLRIQHLQSQFGLLDHKHLDHEVAKPARRKRLPEMAQPVDPAHNVSRLHRLPRDCQELFQVGERQSGLFEIQPQGSPPFLVNCKMTSDGGWTVIQRRHDGSVDFNRPWEAYKAGFGDPHGEFWLGLEKVHSITGDRNSRLAVQLRDWDGNAELLQFSVHLGGEDTAYSLQLTAPVAGQLGATTVPPSGLSVPFSTWDQDHDLRRDKNCAKSLSGGWWFGTCSHSNLNGQYFRSIPQQRQKLKKGIFWKTWRGRYYPLQATTMLIQPMAAEAASDYKDDDDKHHHHHHGGGLNDIFEAQKIEWHE
B2: LPL(28-475)-(G4S)4-hGPIHBP1(21-151)-FLAG-HIS6-Avi (enzyme)
chain: ADQRRDFIDIESKFALRTPEDTAEDTCHLIPGVAESVATCHFNHSSKTFMVIHGWTVTGMYESWVPKLVAALYKREPDSNVIVVDWLSRAQEHYPVSAGYTKLVGQDVARFINWMEEEFNYPLDNVHLLGYSLGAHAAGIAGSLTNKKVNRITGLDPAGPNFEYAEAPSRLSPDDADFVDVLHTFTRGSPGRSIGIQKPVGHVDIYPNGGTFQPGCNIGEAIRVIAERGLGDVDQLVKCSHERSIHLFIDSLLNEENPSKAYRCSSKEAFEKGLCLSCRKNRCNNLGYEINKVRAKRSSKMYLKTRSQMPYKVFHYQVKIHFSGTESETHTNQAFEISLYGTVAESENIPFTLPEVSTNKTYSFLIYTEVDIGELLMLKLKWKSDSYFSWSDWWSSPGFAIQKIRVKAGETQKKVIFCSREKVSHLQKGKAPAVFVKCHDKSLNKKSGGGGGSGGGGSGGGGSGGGGSQTQQEEEEEDEDHGPDDYDEEDEDEVEEEETNRLPGGRSRVLLRCYTCKSLPRDERCNLTQNCSHGQTCTTLIAHGNTESGLLTTHSTWCTDSCQPITKTVEGTQVTMTCCQSSLCNVPPWQSSRVQDPTGDYKDDDDKHHHHHHGGGLNDIFEAQKIEWHE
modifications: biotin on the C-terminal AviTag in the ELISA and SPR assays
notes: also called LPL-GPIHBP1 fusion polypeptide; LPL-GPIHBP1 fusion

Columns and labels:
[1] = target: T1, Recombinant human LPL (mature human …); assay: cell-based or functional assay
[2] = target: T2, Co-expressed human LPL/soluble GPIHBP1 …; assay: cell-based or functional assay
[3] = target: B2; assay: cell-based or functional assay
[4] = target: T2, Co-expressed human LPL/soluble GPIHBP1 …; assay: TR-FRET dissociation of the LPL/GPIHBP1 complex (10 nM 6HIS-hLPL-HA-Flag / biotinylated hGPIHBP1-Avi, anti-HA-Tb / streptavidin-D2). ANGPTL4 binds LPL and displaces GPIHBP1. [cont.) C) right graph]
Procedure: The assay for TR-FRET based detection of ANGPTL4 binding to the LPL/GPIHBP1 complex was carried out in 384-well plates (ProxiPlate™ 384-well white, Perkin Elmer, USA) in a final volume of 20 μl. The composition of the assay buffer was 20 mM HEPES pH=7.4, 100 mM NaCl, 10% HI-FBS, 5 mM CaCl₂). The assay procedure was as follows: First 4 μL/well of 5x 6HIS-hLPL-HA-Flag/biotinylated hGPIHBP1-Avi complex (50 nM stock in assay buffer, 10 nM complex final concentration) was added to 8 μL/well buffer. Then 4 μL/well 5x non-biotinylated ANGPTL4(26-406)-Flag-6HIS-Avi (final concentrations of 1 to 1000 nM) was added and incubation was carried out at room temperature for 1 hour. After incubation 4 μL 5× anti-HA-Tb/[…] (Cisbio, diluted in assay buffer to 1.25 nM anti-HA-Tb/50 nM streptavidin-D2 stock concentration) (0.3125 nM anti-HA-Tb/10 nM streptavidin-D2 final concentration) was added and the mixture was incubated at room temperature for 3 hours. Finally the plate was read on an Envision plate reader Ex=320 Em=665 Em=615.

[5] = target: T2, Co-expressed human LPL/soluble GPIHBP1 …; assay: TR-FRET dissociation of the LPL/GPIHBP1 complex: ANGPTL4 binds the LPL of the complex and displaces the labelled GPIHBP1. FRET ratio falls from about 20000 to about 1000 between log -1 and log 3 (nM). [cont.) D]
[6] = target: B1; assay: MSD ELISA: 10 nM biotinylated fusion incubated with ANGPTL4 and captured on streptavidin; bound ANGPTL4 detected with an ANGPTL4 Ab
Procedure: LPL-GPIHBP1 complex or LPL-GPIHBP1 fusion (10 nM, site-specifically biotinylated at the C-terminal end of GPIHBP1) were incubated with increasing concentrations of ANGPTL4 (a 12 point 2-fold serial dilution with highest concentration of 100 nM). The reaction mix was then applied onto a streptavidin coated MSD. The presence of LPL and ANGPTL4 was detected using an LPL or ANGPTL4 specific Abs, which were subsequently quantified using sulpho-tagged secondary Ab. To generate a signal, lx MSD read buffer T was added and the plate was developed using a Sector Imager 6000 (Meso Scale Discovery).
First, the co-expressed LPL/GPIHBP1 complex or the LPL-GPIHBP1 fusion polypeptide was immobilized on a streptavidin surface through C-terminally biotinylated GPIHBP1. The proteins were then incubated with ANGPTL4 and changes in bound ANGPTL4 and LPL were monitored with respective high affinity antibodies. A schematic representation of the assay is depicted on top of FIG. 3, panel A. When the complex was incubated with ANGPTL4, displacement of LPL from the co-expressed LPL/GPIHBP1 complex as function of ANGPTL4 concentration was observed. On the other hand, ANGPTL4 was unable to displace LPL from the covalently linked LPL-GPIHBP1 fusion polypeptide (FIG. 3, panel A, left side). Correspondingly, when bound ANGPTL4 was probed, ANGPTL4 was not captured by the co-expressed LPL/GPIHBP1 complex. […]

[7] = target: T3, hANGPTL4-myc; assay: TR-FRET binding assay (anti-HA-Tb / anti-myc-D2). Target taken from paragraph 181 (fusion polypeptide); the methods instead describe a 6HIS-hLPL-HA-Flag/hGPIHBP1-Avi complex at 10 nM. [cont.) C) left graph]

Row | Binder | IC50 of ANGPTL4 inactivation of LPL enzymatic activity [1] [nM] | IC50 of ANGPTL4 inactivation of LPL enzymatic activity [2] [nM] | fold resistance to ANGPTL4 inactivation against LPL alone [2] [fold] | IC50 of ANGPTL4 inactivation of LPL enzymatic activity [3] [nM] | fold increase of the IC50 of ANGPTL4 inactivation against LPL alone [3] [fold] | fold increase of the IC50 of ANGPTL4 inactivation against the co-expressed LPL/GPIHBP1 complex [3] [fold] | IC50 (read off the curve) [4] [nM] | IC50 [5] [nM] | binding result [6] | binding result [7]
1 | B1 | 3 | 19 | > 6 | 107 | > 35 | > 5 | ~20 | 18 |  | 
2 | B2 |  |  |  |  |  |  |  |  | binds | binds

From US20220025344A1 (Novartis, published 2022)
